Experimental findings from the supplement of paper PMC10126150 are described below.

± gives the standard deviation of the averaged measurements.
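Note: ATP exposure 15 min at 22 °C before imaging.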

For the series, the system named is ATP. Briefly: switch fluorescence ratio, 500 uM ATP over buffer (Cy3 cluster intensity, sum of 5 cycles each) (fold (ratio)); higher = stronger signal-on switching upon ATP binding; sequences stand for … in TCGTCGGCAGCGTCAGATGTGTATAAGAGACAGTTTTTTTTTTTTTTTTTTTTTTTTT…TC. The following applies: aptamer strand: ATP DNA aptamer (quencher-CACCTGGGGGAGTATTGCGGAGGAAGG + anchor), 100 nM annealed; ATP concentration: 500 uM. In short, it runs like this:
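Five buffer/ATP imaging cycles were run on Cy3-labelled switching-strand clusters on a modified Illumina MiSeq flow-cell, with NaOH stripping and re-annealing between cycles. In each cycle, clusters annealed to 100 nM quencher-labelled ATP aptamer were imaged in selection buffer, then after 15 min with 500 uM ATP at 22 °C. Per cluster, the fluorescence ratio is summed target-cycle over summed buffer-cycle Cy3 intensity, averaged per switch-domain sequence. Only clusters within 100-1000 RFU were kept.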
Take GGGTATCGAG: the switch fluorescence ratio came to 1.01 ± 0.019.

Regarding GTTAAAATTA, the switch fluorescence ratio is 1.01 ± 0.015.

As for AAATTCATAC, the switch fluorescence ratio is 1.052 ± 0.0078.

For TGATTACAGT, the switch fluorescence ratio turned out to be 1 ± 0.018.

As to GAATTTTTTG, the switch fluorescence ratio is 0.988 ± 0.012.

Regarding GAAAAATTTT, the switch fluorescence ratio turned out to be 1.02 ± 0.026.

With TATGGGCTAC, the switch fluorescence ratio was 1.56 ± 0.74.

As to GTGTGCCGTG, the switch fluorescence ratio came out at 1.01 ± 0.05.

Consider AGCTGAGTCT, for which the switch fluorescence ratio worked out at 1.02 ± 0.034.

CTGCAGGGGA: the switch fluorescence ratio was 1.05 ± 0.048.

Take TTTCGATTTG: the switch fluorescence ratio was found to be 1.02 ± 0.012.

As to GGGTCGGGGC, the switch fluorescence ratio is 1.02 ± 0.017.

Take CCTAACAGTT: the switch fluorescence ratio was 1.02 ± 0.0039.

On to AGATTTTCCT, for which the switch fluorescence ratio came out at 1.19 ± 0.35.

Turning to AAGGTGGGTA, the switch fluorescence ratio is 0.99 ± 0.031.

For CGTTCCGGTC, the switch fluorescence ratio turned out to be 1.06 ± 0.054.

On to GTCAGGTCTT, for which the switch fluorescence ratio was 0.975 ± 0.021.

On to TATCATATCA, for which the switch fluorescence ratio is 0.956 ± 0.017.

GGATACATGT: the switch fluorescence ratio stood at 1.003 ± 0.0031.

With TAAAACCCTT, the switch fluorescence ratio worked out at 1.04 ± 0.076.

Consider CGGTGGCTCC, for which the switch fluorescence ratio came to 1.026 ± 0.0025.

For the sequence ATGAAGCGGT, the switch fluorescence ratio came to 1.04 ± 0.083.

Take TCCGGATCGG: the switch fluorescence ratio worked out at 1.03 ± 0.012.

For the sequence AGATTATGCA, the switch fluorescence ratio was determined as 1.01 ± 0.048.

As for GTTATAAGTT, the switch fluorescence ratio worked out at 1.06 ± 0.027.

On to AAAGGCCGGA, for which the switch fluorescence ratio turned out to be 1.03 ± 0.041.

For AGGACCAGCA, the switch fluorescence ratio is 1.024 ± 0.0075.

With CCAGGGGGGC, the switch fluorescence ratio was 1.16 ± 0.061.

With GGTGTTCAGC, the switch fluorescence ratio was 0.981 ± 0.04.

With TTGTGGTTGC, the switch fluorescence ratio worked out at 1.02 ± 0.013.

Regarding ATATAGAATA, the switch fluorescence ratio was 1.03 ± 0.024.

For the sequence TAGGGACTGG, the switch fluorescence ratio was 0.996 ± 0.016.

For the sequence GAGTCGGTTA, the switch fluorescence ratio is 0.98 ± 0.045.

In the case of TTGAGGGTTT, the switch fluorescence ratio is 0.994 ± 0.029.

On to TATTCTAGTA, for which the switch fluorescence ratio stood at 1.01 ± 0.022.

Consider GGTAGTGCTG, for which the switch fluorescence ratio was 0.982 ± 0.042.

With TGTAGTGTTT, the switch fluorescence ratio was 1.03 ± 0.044.

As to TTTCTAGTGA, the switch fluorescence ratio stood at 0.991 ± 0.047.

Regarding TCCTTGGGTT, the switch fluorescence ratio was 1.016 ± 0.0099.

Take GTGTGGGGCG: the switch fluorescence ratio turned out to be 0.962 ± 0.058.

In the case of AACTTTAACT, the switch fluorescence ratio came out at 1.04 ± 0.014.

TGTGTTAGGG: the switch fluorescence ratio is 0.979 ± 0.049.

In the case of TTTAGCCATT, the switch fluorescence ratio was 0.992 ± 0.012.

As for CAGGCTTTGC, the switch fluorescence ratio was determined as 0.992 ± 0.076.

In the case of CAATCTTGGA, the switch fluorescence ratio is 1 ± 0.012.

With TCTAGGACGG, the switch fluorescence ratio stood at 1 ± 0.017.

With AAAAGGAAGT, the switch fluorescence ratio was 1.01 ± 0.016.

In the case of AATTACCTCG, the switch fluorescence ratio worked out at 1.04 ± 0.043.

With GGTTAAGGGA, the switch fluorescence ratio was 0.982 ± 0.024.

As to GGGTATTATG, the switch fluorescence ratio is 1.02 ± 0.028.

With TGAGACAATA, the switch fluorescence ratio was found to be 1.1 ± 0.011.

For CAATGTCCCG, the switch fluorescence ratio stood at 0.9985 ± 0.0041.

Regarding TTGTGAGGGC, the switch fluorescence ratio came to 1.02 ± 0.041.

Turning to CCAATGAGTC, the switch fluorescence ratio was 0.971 ± 0.013.

On to ATTCTTTACG, for which the switch fluorescence ratio turned out to be 1.03 ± 0.015.

GAGGGGGAGC: the switch fluorescence ratio worked out at 1.03 ± 0.089.

GGTTCTTGAA: the switch fluorescence ratio was 0.994 ± 0.019.

Consider CGAGACTTAT, for which the switch fluorescence ratio is 0.996 ± 0.013.

Regarding GATTTGCCTG, the switch fluorescence ratio worked out at 0.968 ± 0.036.

For TTGGGTTTCT, the switch fluorescence ratio was determined as 0.97996 ± 0.00043.

As for ACTAGGCTGG, the switch fluorescence ratio is 1.01 ± 0.028.

Consider GTATTTTGGG, for which the switch fluorescence ratio came out at 0.996 ± 0.014.

In the case of TTGCGAGAAC, the switch fluorescence ratio is 1.17 ± 0.18.

Take TGACGAGGGG: the switch fluorescence ratio came out at 0.967 ± 0.031.

As to GATTTCCAGG, the switch fluorescence ratio is 1.2 ± 0.024.

Turning to GTTAATAACA, the switch fluorescence ratio was determined as 1.011 ± 0.0052.

Consider TGGGAATTGT, for which the switch fluorescence ratio is 1 ± 0.026.

Turning to TTACGCTCAT, the switch fluorescence ratio was 2.79 ± 0.61.

Regarding GAAACCTATT, the switch fluorescence ratio came to 1.0142 ± 7.7e-05.

ACTCTGCCGG: the switch fluorescence ratio was determined as 1.2 ± 0.048.

On to GGGCCCAAAG, for which the switch fluorescence ratio came out at 1 ± 0.021.

On to TCAATGCGAT, for which the switch fluorescence ratio worked out at 1.33 ± 0.19.

As to TAAAGGAAAT, the switch fluorescence ratio stood at 1.09 ± 0.11.

For the sequence GATGAATGCT, the switch fluorescence ratio was 0.9814 ± 0.0034.

Consider TATTGTATGC, for which the switch fluorescence ratio is 0.996 ± 0.037.

For the sequence TTTTTTTCGG, the switch fluorescence ratio is 1 ± 0.027.

In the case of TCAATTGAGA, the switch fluorescence ratio is 1.02 ± 0.01.

On to TGGTGAGGGC, for which the switch fluorescence ratio came to 0.9816 ± 0.0077.

On to ATATTAAAAC, for which the switch fluorescence ratio was determined as 0.988 ± 0.034.
